Experiments:
[1] = biological target: T1, his-tagged human PD-L1 (R&D-9049-B7), hPro1.ECD.His (human, UniProt Q9NZQ7 19-238); assay: SPR (ProteOn), antibody captured by anti-human IgG Fc, antigen as analyte, 1:1 model
T1 construct: extracellular domain; His tag; also called hPro1.ECD.His (human PD-L1 ECD); human PD-L1 ECD protein (R&D-9049-B7)
Procedure: (§1) Antibodies binding affinities to his-tagged human PD-L1 (R&D-9049-B7), his-tagged cynomolgus PD-L1 (Sino Biological-90251-C08H) and his-tagged mouse PD-L1 (Sino Biological-50010-M08H) were detected by surface plasmon resonance (SPR) assay using the software ProteOn. Testing antibody was captured on anti-human IgG Fc antibody immobilized GLM chip (Bio-rad). The chip was rotated 90° and washed with running buffer until the baseline is stable. hPro1.ECD.His, cynoPro1.ECD.His and mPro1-ECD-His at different concentrations was injected over the sensor chip at a flow rate of 100 uL/min for an association phase of 120 s, followed by 240-800 s dissociation. The chip was regenerated by 10 mM glycine (pH 1.5) following every dissociation phase.
(§2) The sensorgrams for reference channel L1 and buffer channel A6 were subtracted from the test sensorgrams. The experimental data were fitted by 1:1 binding model. Molecular weight of 40 kDa was used to calculate the molar concentration of analyte hPro1.ECD.His (R&D), cynoPro1.ECD.His and mPro1-ECD-His.

[2] = biological target: T2, his-tagged cynomolgus PD-L1 (Sino Biological-90251-C08H), cynoPro1.ECD.His (cynomolgus, UniProt G7PSE7 19-238); assay: as above
T2 construct: extracellular domain; His tag; also called cynoPro1.ECD.His (cyno PD-L1 ECD)
Procedure: as §1, §2

[3] = biological target: T3, his-tagged mouse PD-L1 (Sino Biological-50010-M08H), mPro1-ECD-His (mouse, UniProt Q9EP73 19-239); assay: as above
T3 construct: extracellular domain; His tag; also called mPro1-ECD-His (mouse PD-L1 ECD)
Procedure: as §1, §2

W317-hPro1.his = biological target: T4, W317-hPro1.his; assay: non-specific binding ELISA; antigen coated at 2 ug/mL, antibody at 10 ug/ml
T4 construct: identity unknown
Procedure: (§3) Non-specific binding ELISA was performed in 96-well high binding plates (Nunc-Immuno Plate, Thermo Scientific). The plate was coated with various antigens (as listed in the left column of Table 11) at 2 μg/mL overnight at 4° C. After blocking with 2% BSA-PBS, 10 μg/ml antibodies were added to the plate and incubated for 2 hours. […] The HRP signal was detected by adding TMB peroxidase substrate and the reaction was stopped after 12 minutes using 2M HCl. The absorbance at 450 nm was read using a microplate reader (Molecular Device). All incubation steps were performed at room temperature. The plate was washed with PBST (0.05% Tween20-PBS) between steps.

CTLA4.his = assay: as above
Procedure: as §3

VEGF.his = assay: as above
Procedure: as §3

CD40 = assay: as above
Procedure: as §3

CD147.his = assay: as above
Procedure: as §3

CD3.his = assay: as above
Procedure: as §3

CD22.his = assay: as above
Procedure: as §3

Factor VIII = assay: as above
Procedure: as §3

human serum Albumin = human serum Albumin (human, UniProt P02768 25-609); assay: as above
Procedure: as §3

FGFR.his = assay: as above
Procedure: as §3

T1 sequence (Q9NZQ7 19-238): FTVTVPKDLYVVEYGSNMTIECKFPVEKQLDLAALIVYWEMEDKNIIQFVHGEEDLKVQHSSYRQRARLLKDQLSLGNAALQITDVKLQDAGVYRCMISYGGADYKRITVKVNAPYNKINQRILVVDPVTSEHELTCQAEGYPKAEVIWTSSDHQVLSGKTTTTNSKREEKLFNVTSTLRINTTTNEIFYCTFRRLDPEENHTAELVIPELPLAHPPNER
T2 sequence (G7PSE7 entry or part of it C08H C08H): as the sequence (Q9NZQ7 19-238) above, with A33T, A34S, S62N, R68Q, Q82R, F173L, T185A, T192I, H215L counted along it
T3 sequence (Q9EP73 19-239, stated change not applied): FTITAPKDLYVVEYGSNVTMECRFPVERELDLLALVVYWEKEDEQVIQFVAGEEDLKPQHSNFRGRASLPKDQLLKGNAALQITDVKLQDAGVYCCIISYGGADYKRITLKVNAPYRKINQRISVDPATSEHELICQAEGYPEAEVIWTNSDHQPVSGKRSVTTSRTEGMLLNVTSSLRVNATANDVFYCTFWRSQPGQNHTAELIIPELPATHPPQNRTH
CTLA4.his, sequence (P16410 36-161): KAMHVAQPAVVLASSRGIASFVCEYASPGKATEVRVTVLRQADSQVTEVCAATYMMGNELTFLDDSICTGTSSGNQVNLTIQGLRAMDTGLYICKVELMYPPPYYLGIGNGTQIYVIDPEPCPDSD
CD40, sequence (P25942 21-193): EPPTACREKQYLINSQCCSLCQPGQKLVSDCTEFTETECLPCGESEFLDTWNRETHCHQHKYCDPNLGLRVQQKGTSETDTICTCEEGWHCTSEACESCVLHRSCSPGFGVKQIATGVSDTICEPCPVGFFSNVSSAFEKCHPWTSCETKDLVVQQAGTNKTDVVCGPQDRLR
VEGF.his, sequence (P15692 whole entry): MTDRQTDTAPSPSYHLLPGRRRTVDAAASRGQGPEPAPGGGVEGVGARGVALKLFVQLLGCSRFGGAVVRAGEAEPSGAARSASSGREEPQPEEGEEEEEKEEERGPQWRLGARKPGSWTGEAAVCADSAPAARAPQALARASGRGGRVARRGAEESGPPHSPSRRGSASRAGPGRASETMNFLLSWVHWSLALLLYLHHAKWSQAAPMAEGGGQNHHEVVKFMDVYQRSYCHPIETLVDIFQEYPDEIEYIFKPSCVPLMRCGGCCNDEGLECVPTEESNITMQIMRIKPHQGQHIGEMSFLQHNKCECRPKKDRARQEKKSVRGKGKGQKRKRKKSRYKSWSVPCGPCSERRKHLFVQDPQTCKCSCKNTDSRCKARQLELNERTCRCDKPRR

B1: AP3R2-1A3-z12-hIgG4 (Fc fusion)
chain: EVQLVESGGGLVQPGGSLRLSCAASGHFSNLAVNWFRQAPGKERELVAGILWSGGSTFYADSVKGRFTISRGNAENMLYLQMNSLRAEDTAVYYCNTGTNWGQGTLVTVSS
notes: VHH-Fc (hIgG4) fusion of the humanized VHH; also called W3156-AP3R2-1A3-z12-hIgG4; W3156 antibody; not shown: Fc of human IgG4
B1 showed a Kd [1] of 0.208 nM, a koff [1] of 0.000385 s⁻¹ and a kon [1] of 1.85e+06 M⁻¹ s⁻¹. For the same binder, the Kd [2] was 0.251 nM, the koff [2] was 0.000478 s⁻¹ and the kon [2] was 1.91e+06 M⁻¹ s⁻¹. The Kd [3] was 19.4 nM, the koff [3] was 0.0114 s⁻¹ and the kon [3] was 589000 M⁻¹ s⁻¹. For the same binder, the “Absorbance at 450 nm” value (W317-hPro1.his) was 0.06, the “Absorbance at 450 nm” value (CTLA4.his) was 0.08 and the “Absorbance at 450 nm” value (VEGF.his) was 0.09. For the same binder, the “Absorbance at 450 nm” value (CD40) was 0.25, the “Absorbance at 450 nm” value (CD147.his) was 0.07 and the “Absorbance at 450 nm” value (CD3.his) was 0.07. The “Absorbance at 450 nm” value (CD22.his) was 0.06, the “Absorbance at 450 nm” value (Factor VIII) was 0.06 and the “Absorbance at 450 nm” value (human serum Albumin) was 0.42. The “Absorbance at 450 nm” value (FGFR.his) was 0.14.

From patent US20220403031A1 (WUXI BIOLOGICS IRELAND, published 2022)
